Measured values: US20110118447A1
Substitutions are numbered along the chain they refer to. Names and notes keep the numbering of the source.

B1: C5A (XPA23) VL T52E (antibody, V domains shown)
VH: EVQLLESGGGLVQPGGSLRLSCAASGFTFSKYFMFWVRQAPGKGLEWVSVISPSGGMTRYADSVKGRFTISRDNSKNTLYLQMNSLRAEDTAVYYCARVGYGGNSDYWGQGTLVTVSS
VL: DIQMTQSPSSVSASVGDRLTIICRASQDINRWLAWYQQTPGNAPKLLIHSAESLQSGVPSRFSGSGSGTDFTLTINSLQPEDFATYYCQQADSFPLTFGGGTKVEIK
B2: C5A (XPA23) VL D92Q (antibody, V domains shown)
VH: B1 VH
VL: B1 VL with E52T, D92Q
B3: C5A (XPA23) VL T52H (antibody, V domains shown)
VH: B1 VH
VL: B1 VL with E52H
B4: C5A (XPA23) VL S53R (antibody, V domains shown)
VH: B1 VH
VL: B1 VL with E52T, S53R
B5: C5A (XPA23) VL D92E (antibody, V domains shown)
VH: B1 VH
VL: B1 VL with E52T, D92E
B6: C5A (XPA23) VL T52Y (antibody, V domains shown)
VH: B1 VH
VL: B1 VL with E52Y
B7: C5A (XPA23) VL T52S (antibody, V domains shown)
VH: B1 VH
VL: B1 VL with E52S
B8: C5A (XPA23) VL S53Y (antibody, V domains shown)
VH: B1 VH
VL: B1 VL with E52T, S53Y
B9: C5A (XPA23) VL S93T (antibody, V domains shown)
VH: B1 VH
VL: B1 VL with E52T, S93T
B10: C5A (XPA23) VL S53Q (antibody, V domains shown)
VH: B1 VH
VL: B1 VL with E52T, S53Q
B11: C5A (XPA23) VL L96H (antibody, V domains shown)
VH: B1 VH
VL: B1 VL with E52T, L96H
B12: C5A (XPA23) VL T52K (antibody, V domains shown)
VH: B1 VH
VL: B1 VL with E52K
B13: C5A (XPA23) VL A91S (antibody, V domains shown)
VH: B1 VH
VL: B1 VL with E52T, A91S
B14: C5A (XPA23) VL A91T (antibody, V domains shown)
VH: B1 VH
VL: B1 VL with E52T, A91T
B15: C5A (XPA23) VL S93H (antibody, V domains shown)
VH: B1 VH
VL: B1 VL with E52T, S93H
B16: C5A (XPA23) VL P95D (antibody, V domains shown)
VH: B1 VH
VL: B1 VL with E52T, P95D
B17: C5A (XPA23) VL Q27A (antibody, V domains shown)
VH: B1 VH
VL: B1 VL with Q27A, E52T
B18: C5A (XPA23) VL P95E (antibody, V domains shown)
VH: B1 VH
VL: B1 VL with E52T, P95E
B19: C5A (XPA23) VL S53E (antibody, V domains shown)
VH: B1 VH
VL: B1 VL with E52T, S53E
B20: C5A (XPA23) VL S53N (antibody, V domains shown)
VH: B1 VH
VL: B1 VL with E52T, S53N
B21: C5A (XPA23) VL L96T (antibody, V domains shown)
VH: B1 VH
VL: B1 VL with E52T, L96T
B22: C5A (XPA23) VL D92H (antibody, V domains shown)
VH: B1 VH
VL: B1 VL with E52T, D92H
B23: C5A (XPA23) VL A91D (antibody, V domains shown)
VH: B1 VH
VL: B1 VL with E52T, A91D
B24: C5A (XPA23) VL A91E (antibody, V domains shown)
VH: B1 VH
VL: B1 VL with E52T, A91E
B25: C5A (XPA23) VL S93Q (antibody, V domains shown)
VH: B1 VH
VL: B1 VL with E52T, S93Q
B26: C5A (XPA23) VL L96S (antibody, V domains shown)
VH: B1 VH
VL: B1 VL with E52T, L96S
B27: C5A (XPA23) VL T52R (antibody, V domains shown)
VH: B1 VH
VL: B1 VL with E52R
B28: C5A (XPA23) VL T52Q (antibody, V domains shown)
VH: B1 VH
VL: B1 VL with E52Q
B29: C5A (XPA23) VL A91H (antibody, V domains shown)
VH: B1 VH
VL: B1 VL with E52T, A91H
B30: C5A (XPA23) VL D92K (antibody, V domains shown)
VH: B1 VH
VL: B1 VL with E52T, D92K
B31: C5A (XPA23) VL L96Q (antibody, V domains shown)
VH: B1 VH
VL: B1 VL with E52T, L96Q
B32: C5A (XPA23) VL S93D (antibody, V domains shown)
VH: B1 VH
VL: B1 VL with E52T, S93D
B33: C5A (XPA23) VL D92S (antibody, V domains shown)
VH: B1 VH
VL: B1 VL with E52T, D92S
B34: C5A (XPA23) VL S93R (antibody, V domains shown)
VH: B1 VH
VL: B1 VL with E52T, S93R
B35: C5A (XPA23) VL S53T (antibody, V domains shown)
VH: B1 VH
VL: B1 VL with E52T, S53T
B36: C5A (XPA23) VL S93E (antibody, V domains shown)
VH: B1 VH
VL: B1 VL with E52T, S93E
B37: C5A (XPA23) VL D92T (antibody, V domains shown)
VH: B1 VH
VL: B1 VL with E52T, D92T
B38: C5A (XPA23) VL P95S (antibody, V domains shown)
VH: B1 VH
VL: B1 VL with E52T, P95S
B39: C5A (XPA23) VL A91N (antibody, V domains shown)
VH: B1 VH
VL: B1 VL with E52T, A91N
B40: C5A (XPA23) VL S93N (antibody, V domains shown)
VH: B1 VH
VL: B1 VL with E52T, S93N
B41: C5A (XPA23) VL S93K (antibody, V domains shown)
VH: B1 VH
VL: B1 VL with E52T, S93K
B42: C5A (XPA23) VL S93Y (antibody, V domains shown)
VH: B1 VH
VL: B1 VL with E52T, S93Y
B43: C5A (XPA23) VL L96N (antibody, V domains shown)
VH: B1 VH
VL: B1 VL with E52T, L96N
B44: C5A (XPA23) VL T52N (antibody, V domains shown)
VH: B1 VH
VL: B1 VL with E52N
B45: C5A (XPA23) VL D92N (antibody, V domains shown)
VH: B1 VH
VL: B1 VL with E52T, D92N
B46: C5A (XPA23) VL S53K (antibody, V domains shown)
VH: B1 VH
VL: B1 VL with E52T, S53K

Target: binding partner of C5A (XPA23)
Assay: Biacore K-off

| Binder | fold difference in affinity vs original [fold] |
| --- | --- |
| B1 | 0.61 |
| B2 | 0.56 |
| B3 | 0.91 |
| B4 | 3.29 |
| B5 | 0.99 |
| B6 | 1.01 |
| B7 | 0.78 |
| B8 | 1.23 |
| B9 | 1.47 |
| B10 | 1.09 |
| B11 | 0.07 |
| B12 | 3.23 |
| B13 | 0.9 |
| B14 | 0.67 |
| B15 | 1.08 |
| B16 | 1.32 |
| B17 | 1.47 |
| B18 | 0.88 |
| B19 | 1.13 |
| B20 | 1.23 |
| B21 | 0.06 |
| B22 | 0.63 |
| B23 | 1.08 |

| Binder | fold difference in affinity vs original [fold] |
| --- | --- |
| B24 | 0.1 |
| B25 | 1.54 |
| B26 | 0.23 |
| B27 | 3.37 |
| B28 | 0.83 |
| B29 | 1.12 |
| B30 | 0.23 |
| B31 | 0.21 |
| B32 | 4.59 |
| B33 | 6.59 |
| B34 | 0.91 |
| B35 | 0.95 |
| B36 | 3.71 |
| B37 | 0.34 |
| B38 | 4.05 |
| B39 | 0.1 |
| B40 | 3.76 |
| B41 | 0.86 |
| B42 | 1.45 |
| B43 | 0.06 |
| B44 | 0.83 |
| B45 | 0.67 |
| B46 | 4.07 |
